B1: glmS ribozyme (parent)
chain: AUAAAAGCGCCAGAACUACAGAAAUGUAGUUGACGAGGAGGAGGUUUAUCGAAUUUUCGGCGGAUGCCUCCAAA

What all share (settings): with glucosamine-6-phosphate
In data set [1] the parent is B1. The experiment in a line: self-cleavage kobs at 40 uM GlcN6P; higher = faster cleavage; RNA array. The gist of the method: (§1)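 Tracking of barcoded ribozyme variants used a hybridised Cy3 probe at 37 °C, after in situ transcription by E. coli RNA polymerase on sequenced MiSeq chips. The flowed solution held 40 μM to 10 mM glucosamine-6-phosphate in HEPES/KCl/Mg(OAc)2 buffer, and imaging ran over ~14 h. kobs was taken from exponential decay fits of normalised per-tile medians, and kcat and KM from weighted Michaelis–Menten fits.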

The variants in data set [2] derive from B1. The experiment in a line: self-cleavage kobs at 640 uM GlcN6P; higher = faster cleavage; RNA array. In a few lines: as §1
In data set [3] the parent is B1. The experiment in a line: self-cleavage kobs at 10000 uM GlcN6P; higher = faster cleavage; RNA array. The gist of the method:
as §1

The variants in data set [4] derive from B1. The experiment in a line: self-cleavage kobs at 160 uM GlcN6P; higher = faster cleavage; RNA array. In a few lines: as §1
Variants of B1 are the subject of data set [5]. The experiment in a line: self-cleavage kobs at 2500 uM GlcN6P; higher = faster cleavage; RNA array. The gist of the method: as §1

The source of these data is the supplement of paper PMC7125110.

± gives the standard error. This sample holds only a part of the variants without activity.

With A15C A42C, the “self-cleavage kobs at 40 uM GlcN6P” value with glucosamine-6-phosphate [1] is less than 1e-05 s⁻¹. The “self-cleavage kobs at 640 uM GlcN6P” value in the data set with glucosamine-6-phosphate [2] was less than 1e-05 s⁻¹. Further, the “self-cleavage kobs at 10000 uM GlcN6P” value with glucosamine-6-phosphate [3] was less than 1e-05 s⁻¹.

For G44A U46C A53U C61U, in the data set with glucosamine-6-phosphate [1], the “self-cleavage kobs at 40 uM GlcN6P” value is less than 1e-05 s⁻¹.

On to U49C G63C, for which the “self-cleavage kobs at 40 uM GlcN6P” value with glucosamine-6-phosphate [1] was less than 1e-05 s⁻¹. Moreover, in the data set with glucosamine-6-phosphate [2], the “self-cleavage kobs at 640 uM GlcN6P” value is less than 1e-05 s⁻¹.

For G35U C58G G62U, the “self-cleavage kobs at 40 uM GlcN6P” value with glucosamine-6-phosphate [1] was less than 1e-05 s⁻¹.

Take G38A G41A: the “self-cleavage kobs at 40 uM GlcN6P” value with glucosamine-6-phosphate [1] is less than 1e-05 s⁻¹. Further, the “self-cleavage kobs at 160 uM GlcN6P” value with glucosamine-6-phosphate [4] was less than 1e-05 s⁻¹. In the data set with glucosamine-6-phosphate [2], the “self-cleavage kobs at 640 uM GlcN6P” value was less than 1e-05 s⁻¹. Also, the “self-cleavage kobs at 2500 uM GlcN6P” value in the data set with glucosamine-6-phosphate [5] was less than 1e-05 s⁻¹. The “self-cleavage kobs at 10000 uM GlcN6P” value in the data set with glucosamine-6-phosphate [3] is less than 1e-05 s⁻¹.

Consider C8A C71A, for which, in the data set with glucosamine-6-phosphate [1], the “self-cleavage kobs at 40 uM GlcN6P” value was less than 1e-05 s⁻¹. Also, the “self-cleavage kobs at 160 uM GlcN6P” value with glucosamine-6-phosphate [4] is less than 1e-05 s⁻¹. For the same variant, in the data set with glucosamine-6-phosphate [2], the “self-cleavage kobs at 640 uM GlcN6P” value was less than 1e-05 s⁻¹. For the same variant, in the data set with glucosamine-6-phosphate [5], the “self-cleavage kobs at 2500 uM GlcN6P” value was less than 1e-05 s⁻¹. In addition, the “self-cleavage kobs at 10000 uM GlcN6P” value with glucosamine-6-phosphate [3] was less than 1e-05 s⁻¹.

With G7U C11A C61G, the “self-cleavage kobs at 40 uM GlcN6P” value with glucosamine-6-phosphate [1] was less than 1e-05 s⁻¹.

Take C16U U49G G59C G62U C67A: the “self-cleavage kobs at 40 uM GlcN6P” value in the data set with glucosamine-6-phosphate [1] is less than 1e-05 s⁻¹.

Regarding A36C C58G U69G, the “self-cleavage kobs at 40 uM GlcN6P” value with glucosamine-6-phosphate [1] is 7.56e-05 ± 2.1e-05 s⁻¹. The “self-cleavage kobs at 10000 uM GlcN6P” value with glucosamine-6-phosphate [3] was found to be 5.12e-05 ± 1.9e-05 s⁻¹.

For C11A G44U, in the data set with glucosamine-6-phosphate [1], the “self-cleavage kobs at 40 uM GlcN6P” value was less than 1e-05 s⁻¹. For the same variant, the “self-cleavage kobs at 160 uM GlcN6P” value with glucosamine-6-phosphate [4] is less than 1e-05 s⁻¹. Besides, the “self-cleavage kobs at 640 uM GlcN6P” value in the data set with glucosamine-6-phosphate [2] is less than 1e-05 s⁻¹. For the same variant, the “self-cleavage kobs at 2500 uM GlcN6P” value in the data set with glucosamine-6-phosphate [5] was less than 1e-05 s⁻¹.

With A14U A39C U49A, in the data set with glucosamine-6-phosphate [1], the “self-cleavage kobs at 40 uM GlcN6P” value is less than 1e-05 s⁻¹.

In the case of C11G A48U, the “self-cleavage kobs at 40 uM GlcN6P” value with glucosamine-6-phosphate [1] is less than 1e-05 s⁻¹. Also, in the data set with glucosamine-6-phosphate [4], the “self-cleavage kobs at 160 uM GlcN6P” value is less than 1e-05 s⁻¹. Further, the “self-cleavage kobs at 640 uM GlcN6P” value in the data set with glucosamine-6-phosphate [2] is less than 1e-05 s⁻¹. In addition, the “self-cleavage kobs at 10000 uM GlcN6P” value with glucosamine-6-phosphate [3] was less than 1e-05 s⁻¹.

In the case of C8U G38C G44U A48C, the “self-cleavage kobs at 40 uM GlcN6P” value in the data set with glucosamine-6-phosphate [1] was less than 1e-05 s⁻¹.

Regarding G13A G35C G41U A53C U54A, the “self-cleavage kobs at 40 uM GlcN6P” value with glucosamine-6-phosphate [1] is less than 1e-05 s⁻¹.

Regarding G35C U55C, the “self-cleavage kobs at 40 uM GlcN6P” value in the data set with glucosamine-6-phosphate [1] is less than 1e-05 s⁻¹. In addition, in the data set with glucosamine-6-phosphate [4], the “self-cleavage kobs at 160 uM GlcN6P” value is less than 1e-05 s⁻¹. For the same variant, the “self-cleavage kobs at 2500 uM GlcN6P” value with glucosamine-6-phosphate [5] was less than 1e-05 s⁻¹. The “self-cleavage kobs at 10000 uM GlcN6P” value with glucosamine-6-phosphate [3] was less than 1e-05 s⁻¹.

As for C8A G35C G66A C70G, the “self-cleavage kobs at 40 uM GlcN6P” value with glucosamine-6-phosphate [1] is less than 1e-05 s⁻¹. Moreover, in the data set with glucosamine-6-phosphate [3], the “self-cleavage kobs at 10000 uM GlcN6P” value was less than 1e-05 s⁻¹.

Take G38C U56G: in the data set with glucosamine-6-phosphate [1], the “self-cleavage kobs at 40 uM GlcN6P” value was less than 1e-05 s⁻¹. For the same variant, the “self-cleavage kobs at 160 uM GlcN6P” value with glucosamine-6-phosphate [4] was less than 1e-05 s⁻¹. The “self-cleavage kobs at 640 uM GlcN6P” value in the data set with glucosamine-6-phosphate [2] is less than 1e-05 s⁻¹. Moreover, the “self-cleavage kobs at 2500 uM GlcN6P” value with glucosamine-6-phosphate [5] was less than 1e-05 s⁻¹.

As to U31G G32U, in the data set with glucosamine-6-phosphate [1], the “self-cleavage kobs at 40 uM GlcN6P” value was determined as 5.84e-05 ± 1e-05 s⁻¹. Besides, in the data set with glucosamine-6-phosphate [2], the “self-cleavage kobs at 640 uM GlcN6P” value was found to be 0.000363 ± 7.2e-05 s⁻¹. For the same variant, the “self-cleavage kobs at 2500 uM GlcN6P” value with glucosamine-6-phosphate [5] stood at 0.000925 ± 0.00026 s⁻¹. For the same variant, the “self-cleavage kobs at 10000 uM GlcN6P” value with glucosamine-6-phosphate [3] turned out to be 0.00232 ± 0.00036 s⁻¹.

G7C G59A: the “self-cleavage kobs at 40 uM GlcN6P” value with glucosamine-6-phosphate [1] was less than 1e-05 s⁻¹. Further, in the data set with glucosamine-6-phosphate [4], the “self-cleavage kobs at 160 uM GlcN6P” value is less than 1e-05 s⁻¹. Also, in the data set with glucosamine-6-phosphate [2], the “self-cleavage kobs at 640 uM GlcN6P” value was less than 1e-05 s⁻¹. Also, the “self-cleavage kobs at 10000 uM GlcN6P” value with glucosamine-6-phosphate [3] was less than 1e-05 s⁻¹.

On to A6G U31G C34G, for which, in the data set with glucosamine-6-phosphate [1], the “self-cleavage kobs at 40 uM GlcN6P” value is less than 1e-05 s⁻¹. Also, the “self-cleavage kobs at 640 uM GlcN6P” value with glucosamine-6-phosphate [2] was less than 1e-05 s⁻¹. Further, the “self-cleavage kobs at 10000 uM GlcN6P” value in the data set with glucosamine-6-phosphate [3] was less than 1e-05 s⁻¹.

As for A14U U56G, the “self-cleavage kobs at 40 uM GlcN6P” value with glucosamine-6-phosphate [1] was determined as 0.000924 ± 0.00012 s⁻¹. Besides, the “self-cleavage kobs at 160 uM GlcN6P” value in the data set with glucosamine-6-phosphate [4] is 0.00383 ± 0.00078 s⁻¹. For the same variant, the “self-cleavage kobs at 640 uM GlcN6P” value with glucosamine-6-phosphate [2] was determined as 0.0066 ± 0.0011 s⁻¹. Besides, the “self-cleavage kobs at 2500 uM GlcN6P” value in the data set with glucosamine-6-phosphate [5] came out at 0.0108 ± 0.0026 s⁻¹. Besides, the “self-cleavage kobs at 10000 uM GlcN6P” value with glucosamine-6-phosphate [3] came to 0.0462 ± 0.0095 s⁻¹.

In the case of A6U G13U U47A, the “self-cleavage kobs at 40 uM GlcN6P” value with glucosamine-6-phosphate [1] is less than 1e-05 s⁻¹.

Take A6U G26A A48U A52G: the “self-cleavage kobs at 40 uM GlcN6P” value with glucosamine-6-phosphate [1] was less than 1e-05 s⁻¹. For the same variant, in the data set with glucosamine-6-phosphate [4], the “self-cleavage kobs at 160 uM GlcN6P” value was less than 1e-05 s⁻¹.

For G9C A48C, the “self-cleavage kobs at 40 uM GlcN6P” value in the data set with glucosamine-6-phosphate [1] was less than 1e-05 s⁻¹. In addition, in the data set with glucosamine-6-phosphate [2], the “self-cleavage kobs at 640 uM GlcN6P” value is less than 1e-05 s⁻¹. For the same variant, the “self-cleavage kobs at 2500 uM GlcN6P” value in the data set with glucosamine-6-phosphate [5] was less than 1e-05 s⁻¹.
